{"source": "the supplement of paper PMC9732359", "note": "± gives the uncertainty stated by the source."}
{"assay": "protein stability index of a GFP-peptide fusion (yeast GPS) (PSI 1-4); higher = more stable; sorted into four equal gates, so the index is relative within each strain", "conditions": "san1∆", "in_short": "(§1)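 Plasmids isolated from each sorting gate were PCR-amplified and Illumina-sequenced, and barcodes assigned the reads to strains. The gates, four of equal size, were set by GFP/Cherry fluorescence ratio on mid-log cultures in leucine-free medium. These cultures were yeast carrying a pooled library of tiled 17-residue yeast protein peptides fused downstream of GFP on a plasmid that also expresses Cherry. The protein stability index is the sum of every gate's read frequency times its gate number.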"}
{"sequence": "NTQPSASGFGFGGSQPN [YGR119C/NUP57]", "protein stability index": "2.84 ± 0.12"}
{"sequence": "NTTVISDKQRRLLAKDA [DIS3]", "protein stability index": "2.06 ± 0.066"}
{"sequence": "NVDKNLNEIKEHKIVVL [RPN14]", "protein stability index": "2.42 ± 0.1"}
{"assay": "protein stability index of a GFP-peptide fusion (yeast GPS) (PSI 1-4); higher = more stable; sorted into four equal gates, so the index is relative within each strain", "conditions": "ubr1∆", "in_short": "as §1"}
{"sequence": "NKITNQGVTCLHLAVGK [NAS6]", "protein stability index": "2.01 ± 0.075"}
{"sequence": "NKKSEENEMIKPMNKGQ [SWP82]", "protein stability index": "3.39 ± 0.26"}
{"sequence": "NKLGNDPSLNLKLLAKS [BRR2]", "protein stability index": "2.55 ± 0.096"}
{"sequence": "NKLGNKRLTEDERIEKE [CDC53]", "protein stability index": "2.42 ± 0.11"}
{"sequence": "NKLTILGRDYPIEVDEE [IRR1]", "protein stability index": "2.64 ± 0.066"}
{"sequence": "NKQIEILTDLVNYRHFK [ITC1]", "protein stability index": "2.75 ± 0.036"}
{"sequence": "NKSRSSGHFSTDSRTGQ [CDC53]", "protein stability index": "3.14 ± 0.039"}
{"sequence": "NKYANNDFANNLPKEGD [CSL4]", "protein stability index": "2.4 ± 0.071"}
{"sequence": "NKYPELLGKDNEDDALI [AAR2]", "protein stability index": "3.02 ± 0.11"}
{"sequence": "NLATWYHSAGGRDKHAL [SSN3]", "protein stability index": "3.42 ± 0.08"}
{"sequence": "NLEESSKLDIYTQQQAL [RET1]", "protein stability index": "2.94 ± 0.079"}
{"sequence": "NLEIPAYEFDGDKVIVG [RIP1]", "protein stability index": "2.72 ± 0.077"}
{"sequence": "NLENHFKKSKIDHINEE [SCL1]", "protein stability index": "2.58 ± 0.047"}
{"sequence": "NLETLVTTKDDLSGADI [RPT2]", "protein stability index": "3.34 ± 0.057"}
{"sequence": "NLGSNVRNSFPLDEIPV [REC8]", "protein stability index": "3.06 ± 0.058"}
{"sequence": "NLGSRTKNNTQASGITA [SSN3]", "protein stability index": "2.65 ± 0.043"}
{"sequence": "NLINLSIGASIADLASL [YCS4]", "protein stability index": "2.69 ± 0.042"}
{"sequence": "NLKLISVSLVDEFPSEL [SIR4]", "protein stability index": "2.6 ± 0.033"}
{"sequence": "NLLESITKLLEINLSKI [YCS4]", "protein stability index": "2.77 ± 0.034"}
{"sequence": "NLLLRELNVEKLNTFNL [SRP72]", "protein stability index": "2.95 ± 0.13"}
{"sequence": "NLNRAFNGDQVIVELLP [DIS3]", "protein stability index": "3.45 ± 0.15"}
{"sequence": "NLSEARLVIKEALVERR [RPB4]", "protein stability index": "3.3 ± 0.13"}
{"sequence": "NLSIDEVAVPDRVAKVL [RPO31]", "protein stability index": "3.22 ± 0.045"}
{"sequence": "NLTAGIIVAGYDDKNKG [PRE3]", "protein stability index": "2.16 ± 0.077"}
{"sequence": "NNAKLLTFMTCNSLHIP [ESC2]", "protein stability index": "2.06 ± 0.047"}
{"sequence": "NNDADKGRSYAYFMVGA [RIP1]", "protein stability index": "3.07 ± 0.075"}
{"sequence": "NNEKVVQYLRSVQDLGG [YML031W/NDC1]", "protein stability index": "3.61 ± 0.24"}
{"sequence": "NNLFRIIAELSFLKVDP [YJL039C/NUP192]", "protein stability index": "3.07 ± 0.086"}
{"sequence": "NNMNVNMNLNPQMFLNQ [GAL11]", "protein stability index": "2.48 ± 0.035"}
{"sequence": "NNNHKDKKLLRRLLNLY [SWI1]", "protein stability index": "3.03 ± 0.054"}
{"sequence": "NNNNTNTQPSASGFGFG [YGR119C/NUP57]", "protein stability index": "2.89 ± 0.036"}
{"sequence": "NNNNTTTTTTTTNNNNT [SWI1]", "protein stability index": "3.128 ± 0.02"}
{"sequence": "NNSNTVASSTNFTSPTA [SWI1]", "protein stability index": "2.71 ± 0.033"}
{"sequence": "NNSSSGMNNASAGLFGS [YGL172W/NUP49]", "protein stability index": "3.35 ± 0.068"}
{"sequence": "NNSTSNANTVFSERAAM [SWI1]", "protein stability index": "3.24 ± 0.089"}
{"sequence": "NNVVINFKDMSHVNKYG [PRP8]", "protein stability index": "2.57 ± 0.075"}
{"sequence": "NPEPNKKNIQKAKSNQT [IRR1]", "protein stability index": "2.56 ± 0.051"}
{"sequence": "NPIHVSRHFASYANLPG [FAS1]", "protein stability index": "2.11 ± 0.038"}
{"sequence": "NPLIELTPIQKKIMDET [ITC1]", "protein stability index": "3.07 ± 0.076"}
{"sequence": "NPNTNTNSNNTPLQSQL [PGD1]", "protein stability index": "2.98 ± 0.07"}
{"sequence": "NPRRLEIKDGRSLFLRN [YMR153W/NUP53]", "protein stability index": "3.22 ± 0.085"}
{"sequence": "NPSEFTPNMVNSEISNL [SSN2]", "protein stability index": "2.91 ± 0.062"}
{"sequence": "NPSYPGMMSTTGTARLN [YJL039C/NUP192]", "protein stability index": "3.24 ± 0.076"}
{"sequence": "NQASTSKRVYKILSPTM [CDC53]", "protein stability index": "2.59 ± 0.067"}
{"sequence": "NQILMSVNFFVSLLKKN [RPL1A]", "protein stability index": "2.39 ± 0.04"}
{"sequence": "NQPHQSQTPSFNTNSSF [YOR098C/NUP1]", "protein stability index": "3.047 ± 0.03"}
{"sequence": "NQVGTDELILPLPSHAL [YDL116W/NUP84]", "protein stability index": "3.06 ± 0.04"}
{"sequence": "NRANVSKDELREKLAEV [RPS24A]", "protein stability index": "3.28 ± 0.088"}
{"sequence": "NRGVKLEIVYGYALRDV [RPP1]", "protein stability index": "3.04 ± 0.065"}
{"sequence": "NRRLFKKCIDFFEMLIS [RRI2]", "protein stability index": "2.02 ± 0.03"}
{"sequence": "NRRWTQRRGPLVVYAED [RPL4A]", "protein stability index": "2.16 ± 0.1"}
{"sequence": "NRTFTDPPFRIEEQGWG [TAF14]", "protein stability index": "3.07 ± 0.054"}
{"sequence": "NSAIANEQEEKSEEVKA [RPC37]", "protein stability index": "2.62 ± 0.08"}
{"sequence": "NSITSGGLKSCDLDFPL [YDL116W/NUP84]", "protein stability index": "3.2 ± 0.063"}
{"sequence": "NSKNDSANVELFKRDCN [YCS4]", "protein stability index": "3.17 ± 0.07"}
{"sequence": "NSLIEEINERSETQTKD [YCG1]", "protein stability index": "2.97 ± 0.1"}
{"sequence": "NSSKPAFSFGAKSNEDK [YJL041W/NSP1]", "protein stability index": "3.33 ± 0.068"}
{"sequence": "NSSNYAELFNNDIKLFV [PRP8]", "protein stability index": "2.27 ± 0.029"}
{"sequence": "NSSVGNKTDAQAPTTGF [YJL041W/NSP1]", "protein stability index": "2.96 ± 0.094"}
{"sequence": "NSTLKKVESQETLNDTI [YCS4]", "protein stability index": "2.1 ± 0.11"}
{"sequence": "NSWFDVTWRTFTGDFLR [FAS1]", "protein stability index": "2.61 ± 0.069"}
{"sequence": "NSYQPSPFFVLDEVDAA [SMC1]", "protein stability index": "2.77 ± 0.087"}
{"sequence": "NTATNALRPSDIFGANA [YOR098C/NUP1]", "protein stability index": "3.2 ± 0.074"}
{"sequence": "NTCTISTSKFESQYPIV [SWP82]", "protein stability index": "2.81 ± 0.071"}
{"sequence": "NTEGSVVYEDSLELEKV [SNF2]", "protein stability index": "3.01 ± 0.095"}
{"sequence": "NTFVTRLNNVFVIGEQG [RPS4A]", "protein stability index": "3.16 ± 0.094"}
{"sequence": "NTKEEFAAAPNDTSSGT [SNF5]", "protein stability index": "2.9 ± 0.062"}
{"sequence": "NTLEFIIEQLSIAAERY [YCG1]", "protein stability index": "2.39 ± 0.036"}
{"sequence": "NTLLISGPFKVNGVPLR [RPL6A]", "protein stability index": "2.72 ± 0.04"}
{"sequence": "NTLYTAIITDDLDTVLK [SRP72]", "protein stability index": "2.6 ± 0.035"}
{"sequence": "NTNNINNSSSGMNNASA [YGL172W/NUP49]", "protein stability index": "3.22 ± 0.094"}
{"sequence": "NTQPSASGFGFGGSQPN [YGR119C/NUP57]", "protein stability index": "2.77 ± 0.13"}
{"sequence": "NTTVISDKQRRLLAKDA [DIS3]", "protein stability index": "2.18 ± 0.045"}
{"sequence": "NVDKNLNEIKEHKIVVL [RPN14]", "protein stability index": "2.74 ± 0.1"}
